# Measurements from the DeepSol protein solubility set.
# Test: soluble on expression in E. coli; label from the status in PepcDB or PDB records
row,Sequence,soluble on expression in E. coli
1,MAILRLEPQQLYSVADLENMPCKSTKELPPIDEIVGQERAQKAVEFAMSIKEKGYNIYAIGQNGLGKRTMILRYLNRHQHDADALFDWCYVANFEDTRTPKVLKLPCGIGNKLRVDIEALMGKLLNALPLAFDNEMYFSRADRLKNQLANKQQNELDRISREAKEHGISLTITSQGDYQFVAMNGDELHTEESFDALSKKEQEQFSDSIDALEVSLRSMVRELTEWEDTYSDKIKKLNDEVTLDVITHFIKKLKVDYSEYSEIKTYLTELQKDIVENADIFLDQSGEQGEIAAASLDKKLPRRYKVNVLVSRNNSDFPIVVEENPNYHSLFGSIETATFKGTVFTDFSLIRAGSLHKANGGVLLMDAQKVLEQPYVWDGLKRALRARQLSFTSLEKEVTLTGAVSLDPEPIPLDIKIILFGDYRTYQLLQHYDPEFSELFRVTADFEDEMKRTPESELHYARFISSVVHDNNMLHCDRKAIARIIEYSSRLSGDQSKLSLHSANIANLLRESNYVARQANSNMIRIGHVEEAMKNQEMRVSRLRDSVMETFLNGTT,not soluble
2,MYSVSLMHGNPKTAIRPAGWHYGRRVYWIEGLPLIGHIAFGVIDRGTNVLQVRPSTLCFHNCIFCSVDAGPSSRRRRSEYTVEWEQLVVWVEKVARVKGGGLEALIDGVGEPLTHPHITRIIKALKGLDAIERVALETHGGSLSKSLARALEKAGLDRINLSVDAADPRLARSLVGVDWYGVDRVLKTAEWIIANTSIDVVLTPVVLPGVNEKEMATLVHWARRVGAGRKSGWPTGVLIQKFEIHKYGRKPSTVKSVWGWRRFYTWLARLEKETGYRLLVDPGEIGFKPRPRVEKPFERGDRVTLVLVGPGWHKGELLAVDRGWRRVVALYGLTEGEALTPGAEVEARIVRDKDNIFIAVPYAAALEHHHHHH,soluble
3,MNVWSKLLTALRGGANEAGEALVDSQALRILDQEIRDADQELRKSKEALAEIMARQKLAAERANGSAAKIAEYESYALKALEAGNEALAQEVAQKIANLENDLAVEREQADGFAASVAQLRKAVTQAEGNIKHLKQQVDTVKATESVQKAQQAVAQRYGGSQSKLHTAVESLERIKQKQAERAAKMDAAAELANTSSPDDALDAKLREAGIVAGSTSADSVLARLKDRSKSLEHHHHHH,not soluble
4,MGSDKIHHHHHHMNSIPHLILGDIITPTQAGQSLLIKKGYVLINGDSIIEVGEQAHFNKEISYTVSNYPDHLILPGLIDTHSHLSQYAICGAGDLPLMDWLNTLVFPAETAFSSNLQRCQRHAELYMHACLGSGTTTINTMVTSSRQATEIVCDVAARLGIRAFIGLVLMDRNAPDNLLVDCAQAFKDLTVLKDRYHGKNNIHITVSPRFAVTCSAAMLRQAGEFARANKLILHTHLDKDEGFDELIQSLFSTAHDYFDVFESTQCIADKTVFAHGTLLSLHEMKRMGDYAKQVGISHCPSSNFSFAMGMAPVSFFKGLGIEVGLGSDSGGGDSLSLFDEMRSASFTNKALWRLDKKTALIDAKTWLYHATLGGAKLLGLEKQIGSIEAGKKADLIILDDRNNYPLAELSSLSQELALDELQYRLARVIARSCENKLVAVYIDGKKVYQ,not soluble
5,MHHHHHHGSMSMPNHQNMLDNQTILITGGTGSFGKCFVRKVLDTTNAKKIIVYSRDELKQSEMAMEFNDPRMRFFIGDVRDLERLNYALEGVDICIHAAALKHVPIAEYNPLECIKTNIMGASNVINACLKNAISQVIALSTDKAANPINLYGATKLCSDKLFVSANNFKGSSQTQFSVVRYGNVVGSRGSVVPFFKKLVQNKASEIPITDIRMTRFWITLDEGVSFVLKSLKRMHGGEIFVPKIPSMKMTDLAKALAPNTPTKIIGIRPGEKLHEVMIPKDESHLALEFEDFFIIQPTISFQTPKDYTLTKLHEKGQKVAPDFEYSSHNNNQWLEPDDLLKLL,soluble
6,AIIWRRAANLVLLDETGRRVDDLAFRSERADLAVIAGEGAERAVPEALEILSAARPILNRVRGLVRMGERRWDIVLDRGQRVLLPVEDPVAAVERMIALDEAEDLLDRDVISVDLR,not soluble
7,SLPGMEHNHNHDHSSHGNHAMHDVGPADATYDLRFIDAMIQHHYGAIEMAKVTINQGYPGAGALASQIISAQSWEIANMLRQRQLRFPDAPIMPVRYTPGQSTVLSQLQPMTEADKVAMRMSGTMDMTGDRGKAFAAAMIPHHEMAIAMAEDALAKSGDSFVRSISWEIIRTQSDEIRRLRGLL,not soluble
8,MRVLIRSSASGSEYWDTEEKRNVFVPKGQEPDFEVTENPESMLSKEADLHVGGLPITVGNVTIDTDGIKGERLLTTASAADDEEQDELVPSDDESVVLEEMNVKELREYAKRKGIEIPSAVRAKGEILNIIKESE,not soluble
